Laboratory results: the supplement of paper PMC10899765

Columns and labels:
Conditions in all cases: 20 nM; 72 h
MCF10A [1] = assay: percent viability (nuclei count relative to siNT); higher = more viable cells
Description: (§1)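 After 72 h, cells were fixed and stained with Hoechst and anti-fibrillarin, and nucleoli per nucleus were counted with CellProfiler. Values are plate-adjusted percent effect for the one-nucleolus and 5+ nucleoli phenotypes, normalised to siNT (0%) and to the positive controls siNOL11 or siKIF11 (100%), as the mean of biological triplicates. Percent viability is the nuclei count relative to siNT.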

MCF10A [2] = assay: 5+ nucleoli phenotype percent effect (relative to siNT 0% and siKIF11 100%); higher = more cells with five or more nucleoli
Description: as §1

MCF10A [3] = assay: one-nucleolus phenotype percent effect (relative to siNT 0% and siNOL11 100%); higher = more cells with one nucleolus (ribosome biogenesis inhibition)
Description: as §1

Sequence | percent viability (MCF10A [1]) [%] | 5+ nucleoli phenotype percent effect (MCF10A [2]) [%] | one-nucleolus phenotype percent effect (MCF10A [3]) [%]
CUCCCACAUGCAGGGUUUGCA [hsa-miR-188-3p] | 57.7 | 25 | -6.75
GGGGGGGCAGGAGGGGCUCAGGG [hsa-miR-328-5p] | 129 | 33.9 | -28.4
AACCCCUAAGGCAACUGGAUGG [hsa-miR-5195-5p] | 53.1 | 2.35 | -2.47
AGUGGUUCUUAACAGUUCAACAGUU [hsa-miR-203a-5p] | 150 | 60.5 | -32.6
AAAAGUAAUUGUGGUUUUUGCC [hsa-miR-548d-5p] | 95.4 | 49.4 | -15.4
ACUCGCAUCCUUCCCUUGGCAG [hsa-miR-6814-3p] | 118 | 32.1 | -25.3
GGCUGAGUGGGGUUCUGACUCC [hsa-miR-8077] | 31.9 | -6.36 | -3.93
AUCUGCCAGCUUCCACAGUGG [hsa-miR-4727-5p] | 42.4 | -25.7 | 17.9
CCCAUCACCUUUCCGUCUCCCCU [hsa-miR-6884-3p] | 70.3 | 50.9 | -25.5
CUCCGUUUGCCUGUUUCGCUG [hsa-miR-1468] | 112 | 30.4 | -8.9
AAUUCUGUAAAGGAAGAAGAGG [hsa-miR-4778-5p] | 74.3 | 32.3 | -8.03
AGGGGGUAGAAAGUGGCUGAAG [hsa-miR-6835-5p] | 14.9 | -24.3 | 11.4
CCCUCAUCUUCCCCUCCUUUC [hsa-miR-6891-3p] | 35.9 | -10.8 | 36.8
ACAGUAGUCUGCACAUUGGUUA [hsa-miR-199b-3p] | 92 | 36.1 | -19.3
CACACAAGUGGCCCCCAACACU [hsa-miR-4731-3p] | 29.9 | -12.1 | 8.2
UAGGGGGUGGCAGGCUGGCC [hsa-miR-6732-5p] | 33.3 | -15.7 | 17.1
GAGCUUGGAUGAGCUGGGCUGA [hsa-miR-4538] | 25.3 | -29.6 | 14.4
GUCCACUUCUGCCUGCCCUGCC [hsa-miR-4436b-5p] | 51.1 | -0.992 | -10.1
UAUGGAGUGGACUUUCAGCUGGC [hsa-miR-6514-5p] | 75 | 38.3 | -0.808
AAUGACACGAUCACUCCCGUUGA [hsa-miR-425-5p] | 74.9 | 16.6 | -5.83
AAAAGCACUUUUCUGUCUCCCAG [hsa-miR-6835-3p] | 41.3 | -36 | 12.3
CCUAAUUUGAACACCUUCGGUA [hsa-miR-4735-5p] | 80.8 | 8.71 | -11.3
UAUGGAGGUUCUAGACCAUGUU [hsa-miR-4802-5p] | 22.7 | 7.79 | 26.9
